Experimental data taken from patent publication US10428308B2, “Mesoderm and definitive endoderm cell populations” (Icahn School of Medicine at Mount Sinai, priority 2005, dated 2019).

Tests used:
EBs = assay: Hematopoietic progenitor potential of activin-induced EBs; type: cell-based, mouse; details: day 7 activin-induced EBs, no serum
Method: FIGS. 24A and 24B show the hematopoietic progenitor content of EBs differentiated in the presence of different concentrations of activin. A) Progenitor potential of day 7 EBs, Ep are primitive erythroid progenitors, mac/mix represent definitive hematopoietic progenitors. B) Progenitor potential of day 7 activin-induced EBs following 2.5 days of exposure to serum.
For the generation of blast cell colonies (BL-CFC assay), EB-derived cells were plated at 0.5×-1.5×10^5 cells/ml in 1% methylcellulose supplemented with 10% FCS (Hyclone), vascular endothelial growth factor (VEGF; 5 ng/ml), c-kit ligand (KL; 1% conditioned medium), IL-6 (5 ng/ml) and 25% D4T endothelial cell conditioned medium (Kennedy et al. (1997) Nature 386:488-93). Transitional colonies were generated in the absence of VEGF. Colonies were scored following four days of culture. […] Primitive erythroid colonies were scored at day 5-6 of culture, whereas definitive erythroid (BFU-E), macrophage, and multilineage colonies were counted at 7-10 days of culture. […]
To further evaluate the hematopoietic potential of these EBs, they were analyzed for progenitor potential.

CD4-HNF/GFP-T ES cells = assay: Activin A / Wnt3a induction of ES derived primitive streak like cells in serum free culture, with pathway inhibitors; type: cell-based, mouse; details: serum free
Method: FIGS. 34A, 34B and 34C depict ES cells differentiated in serum free conditions with Activin A Wnt3a and/or inhibitors of these pathways. ES cells were cultured in serum free media for two days then trypsinized to obtain a single cell population. These cells were then reaggregated with the indicated conditions. At day six, the EBs were plated on matrigel coated dishes in serum free media.
Liu et. al. (1999) Nat. Genet. 22: 361-4. […] Activin stimulation leads to high levels of CD4 expression that persist after loss of GFP-Bry expression at day 6. […] Wnt does however stimulate expression of the posterior primitive streak markers HoxBI and Tbx6, while activin only induces Tbx6. […] At day 6, EBs that were stimulated with either activin or Wnt3a were plated on matrigel in serum free media to allow further development.
Considering that Wnt stimulation induces nodal and activin treatment induces Wnt3 (FIG. 34B), it is unknown whether activin/nodal signaling or Wnt Signaling alone can induce primitive streak formation or whether both factors are required together. CD4-HNF/GFP-T ES cells were induced with either activin or Wnt in conjunction with specific inhibitors of these pathways. DKK1 was used to inhibit Wnt signaling while the small molecule inhibitor SB-431542 (SB) was used to block Nodal/TGFβ signaling. DKK1 functions by binding the Wnt co-receptors, LRP5 and LRP6, which are essential for activation of the βcatenin signaling pathway. […] Inman et. al. (2002) MoI. Pharmacol. 62: 65-74. […] Therefore, to induce mesoderm and endoderm germ layers and their derivative tissues, both activin/Nodal and Wnt signals are required initially.

B1: activin: growth factor purchased from R&D systems; induces mesoderm and endoderm (protein, UniProt P08476 311-426, looked up)
Inhibin beta A chain: GLECDGKVNICCKKQFFVSFKDIGWNDWIIAPSGYHANYCEGECPSHIAGTSGSSLSFHSTVINHYRMRGHSPFANLKSCCVPTKLRPMSMLYYDDGQNIIKKDIQNMIVEECGCS
- primitive (Ep) or definitive (mac/mix) hematopoietic progenitors (EBs): no appreciable numbers
- endodermal gene expression (Alb, Aat, HNF4, Pdxl) by RT-PCR (CD4-HNF/GFP-T ES cells; day 6 EBs plated on matrigel a further 6 days): allowed development of cells expressing the endodermal genes Alb, Aat, HNF4, and Pdxl
- induction of GFP^+ CD4^+ cells (CD4-HNF/GFP-T ES cells; Activin A 25 ng/ml or Wnt3a 100 ng/ml): initially induce GFP^+ CD4^+ cells
